From patent CN116478288A (ZHEJIANG BLUE SHIELD PHARMA CO LTD, dated 2023)
Substitutions are numbered along the chain they refer to. One block for each binder: values may come before it.

Target: T1, (融合小鼠Fc的)CD47 (human, UniProt Q08722 19-139, limits assumed)
T1 construct: also called CD47-mFC; not shown: mouse Fc
Assay: SPR Biacore 8K, antibody on CM5 chip, CD47-mFc as analyte, 1:1 fit, 25 C

T1 sequence (Q08722 19-139 limits assumed): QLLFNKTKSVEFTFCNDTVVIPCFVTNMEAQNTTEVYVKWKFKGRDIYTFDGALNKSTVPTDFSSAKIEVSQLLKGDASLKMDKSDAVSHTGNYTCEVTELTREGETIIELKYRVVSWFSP

B2: 人源化抗体ID 5 (antibody, human IgG4 S228P, kappa)
heavy: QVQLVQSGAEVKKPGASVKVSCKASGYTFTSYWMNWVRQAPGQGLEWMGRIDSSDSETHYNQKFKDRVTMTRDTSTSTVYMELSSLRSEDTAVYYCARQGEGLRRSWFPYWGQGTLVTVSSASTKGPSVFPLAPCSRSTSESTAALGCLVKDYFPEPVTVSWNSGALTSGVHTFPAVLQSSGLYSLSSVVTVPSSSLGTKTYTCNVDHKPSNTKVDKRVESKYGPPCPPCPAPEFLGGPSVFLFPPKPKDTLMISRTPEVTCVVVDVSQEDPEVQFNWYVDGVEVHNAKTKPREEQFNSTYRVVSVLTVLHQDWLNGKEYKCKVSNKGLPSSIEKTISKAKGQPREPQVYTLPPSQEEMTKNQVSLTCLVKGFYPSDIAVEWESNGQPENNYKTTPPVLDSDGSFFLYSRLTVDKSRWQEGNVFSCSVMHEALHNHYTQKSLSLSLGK
light: DIVMTQSPDSLAVSLGERATINCRASKSVSTSGYSYIHWYQQKPGQPPKLLIYVASNLQSGVPDRFSGSGSGTDFTLTISSVQAEDVAVYYCQHIRELPWTFGQGTKVEIKRTVAAPSVFIFPPSDEQLKSGTASVVCLLNNFYPREAKVQWKVDNALQSGNSQESVTEQDSKDSTYSLSSTLTLSKADYEKHKVYACEVTHQGLSSPVTKSFNRGEC
notes: Humanized, human IgG4; also called VH1+VL2
- Kd: 0.623 nM
- koff: 0.000303 s⁻¹
- kon: 486000 M⁻¹ s⁻¹

B3: 人源化抗体ID 4 (antibody, human IgG4 S228P, kappa, V domains shown)
VH: QVQLVQSGAEVKKPGASVKVSCKASGYTFTSYWMNWVRQAPGQGLEWMGRIDSSDSETHYNQKFKDRVTMTRDTSTSTVYMELSSLRSEDTAVYYCARQGEGLRRSWFPYWGQGTLVTVSS
VL: DIVMTQSPDSLAVSLGERATINCRASKSVSTSGYSYIHWYQQKPGQPPKLLIYVASNLQSGVPDRFSGSGSGTDFTLTISSLQAEDVAVYYCQHIRELPWTFGQGTKVEIKR
notes: Humanized, human IgG4; also called VH1+VL1
- Kd: 0.79 nM
- koff: 0.00038 s⁻¹
- kon: 482000 M⁻¹ s⁻¹

Continued by falling Kd, values first:

- Kd: 0.668 nM
- koff: 0.000265 s⁻¹
- kon: 397000 M⁻¹ s⁻¹
B1: 嵌合抗体ID 3 (antibody, human IgG4 S228P, kappa, V domains shown)
VH: QVQLQQPGAELVKPGAPVKLSCKASGYTFTSYWMNWVKQRPGRGLEWIGRIDSSDSETHYNQKFKDKATLTVDKSSSTAYIQLSSLTSEDSAVYYCARQGEGLRRSWFPYWGQGTLVIVSA
VL: DIVLTQSPASLAVSLGQRATISCRASKSVSTSGYSYIHWYQQKPGQPPKLLIYVASNLQSGVPARFSGSGSGTDFTLNIHPVEEEDAATYYCQHIRELPWTFGGGTKLEIKR

- Kd: 0.623 nM
- koff: 0.000283 s⁻¹
- kon: 454000 M⁻¹ s⁻¹
B4: 人源化抗体ID 2 (antibody, human IgG4 S228P, kappa)
heavy: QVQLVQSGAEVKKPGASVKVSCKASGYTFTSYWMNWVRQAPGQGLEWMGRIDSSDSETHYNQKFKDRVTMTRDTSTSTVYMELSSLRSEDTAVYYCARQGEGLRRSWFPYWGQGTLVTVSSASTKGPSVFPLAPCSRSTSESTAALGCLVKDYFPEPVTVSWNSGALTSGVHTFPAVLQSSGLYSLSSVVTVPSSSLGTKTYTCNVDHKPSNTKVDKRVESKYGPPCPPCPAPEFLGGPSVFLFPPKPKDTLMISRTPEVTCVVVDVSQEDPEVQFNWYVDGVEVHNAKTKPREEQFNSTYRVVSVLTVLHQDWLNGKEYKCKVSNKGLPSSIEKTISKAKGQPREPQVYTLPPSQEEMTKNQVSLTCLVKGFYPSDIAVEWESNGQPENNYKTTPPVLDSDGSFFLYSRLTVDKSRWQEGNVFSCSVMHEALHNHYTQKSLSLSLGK
light: B2 light with V108L
notes: Humanized, human IgG4 constant region and human light chain constant region, expressed in 293F cells; also called VH1+VL3
